In paper PMC2995306 (Science (New York, N.Y.), 2009):
Numbering of substitutions follows the chain as printed. Where two headings read alike, the source gives them in different places.

B1: rhesus rotavirus (RRV, serotype G3) VP7 trimer, recombinant (natural protein, UniProt P12476 51-326, looked up)
chain: QNYGINLPITGSMDTAYANSTQEETFLTSTLCLYYPTEAATEINDNSWKDTLSQLFLTKGWPTGSVYFKEYTDIASFSVDPQLYCDYNVVLMKYDATLQLDMSELADLILNEWLCNPMDITLYYYQQTDEANKWISMGSSCTIKVCPLNTQTLGIGCLTTDTATFEEVATAEKLVITDVVDGVNHKLDVTTATCTIRNCKKLGPRENVAVIQVGGSDVLDITADPTTAPQTERMMRINWKKWWQVFYTVVDYVNQIIQAMSKRSRSLNSAAFYYRI
modifications: N-linked glycan at Asn69
B2: disulfide-linked variant of the VP7 trimer (cysteines substituted for Thr276 and Gln305) (natural protein, rhesus rotavirus (RRV, serotype G3), UniProt P12476 51-326, looked up)
chain: B1 chain with T226C, Q255C
modifications: intersubunit disulfide between the cysteines at 276 and 305

Key:
[1] = biological target: the molecule itself; test: crystal structure
[2] = biological target: the molecule itself

Row | Protein | stoichiometry N [1] | stoichiometry N [2]
1 | B1 | 3 | –
2 | B2 | – | 3
